In paper PMC3552686, “Biosynthesis of allene oxides in Physcomitrella patens” (BMC Plant Biology, 2012):

Tests used:
Assay in all cases: purified protein
Format in all cases: biochemical, Physcomitrium patens
purified protein [1] = substrate: CC/C=C\C[C@@H](/C=C/C=C\CCCCCCCC(=O)O)OO; settings: pH 6.5, room temperature, 0.1 nM enzyme, kcat corrected to 100% heme
purified protein [2] = substrate: CCCCC/C=C\C[C@@H](/C=C/C=C\C/C=C\CCCC(=O)O)OO; settings: pH 6.5, room temperature, 0.1 nM enzyme, kcat corrected to 100% heme
purified protein [3] = substrate: CCCCC/C=C\C=C\[C@H](CCCCCCCC(=O)O)OO; settings: pH 6.5, room temperature, 0.1 nM enzyme, kcat corrected to 100% heme
purified protein [4] = substrate: CCCCC[C@@H](/C=C/C=C\CCCCCCCC(=O)O)OO; settings: pH 6.5, room temperature, 0.1 nM enzyme, kcat corrected to 100% heme
purified protein [5] = substrate: CCCCC[C@@H](/C=C/C=C\C/C=C\CCCCC(=O)O)OO; settings: pH 6.5, room temperature, 0.05 nM enzyme, kcat corrected to 100% heme
purified protein [6] = substrate: CC/C=C\C/C=C\C=C\[C@H](CCCCCCCC(=O)O)OO; settings: pH 6.5, room temperature, 0.1 nM enzyme, kcat corrected to 100% heme
purified protein [7] = substrate: CCCCC/C=C\C=C\[C@H](C/C=C\CCCCC(=O)O)OO; settings: pH 6.5, room temperature, 0.05 nM enzyme, kcat corrected to 100% heme

B1: PpAOS1 (Physcomitrium patens) (protein)
chain: MAVPSSKLPLKAIPGDYGVPYFGAIKDRLDYFWLQGEEQFYRSRMAKYNSTVFRVNMPPGPPISEHPQVICLLDQKSFPILFDVSKVEKKDVFTGTYMPSVSFTSGYRVCSYLDPSEERHTKLKQWCFEVIAMNGRNFLPEFHKSIEESMVLWETSLAKGEKTSVSDEVKQFAFNFLMRAVCHHDPAAPGEYSLGRNGGPYATAWANPQLAPIAGQTGLPHVVEELVLHTVPLPSALVKKNYDALYNFIKNYATEALDRAEAMGIERNDATANLLFFLCFNAYGGFSIFFPLITILISSCGPELMHDLHDEVTKAVAATDGKVTLQSIENMPLVKSVVYEAFRFKPPVPYQYGKAKFDFTIENHENSFEVKKGEMLYGYQPIVMHDPKVFSDPDQFLPRRFMGPDGEKLIKYIFWSNGYETDEPTTANKQCAGKDLVVTMARAFVAEMFLRYKEYTLTMEGAGNATKVFFSDLKK
notes: cDNA from protonema library; N-terminal His6 tag kept (pQE30), E. coli SG13009[pRep4]
In the case of B1, the Km (purified protein [1]) is reported as 95 ± 27 µM, the Vmax (purified protein [1]) is reported as 0.9 µM/min and the kcat (purified protein [1]) is reported as 501 s⁻¹. For the same protein, the kcat/Km (purified protein [1]) was 5.27e+06 M⁻¹ s⁻¹, the Km (purified protein [2]) was 7 ± 2 µM and the Vmax (purified protein [2]) was 0.23 µM/min. For the same protein, the kcat (purified protein [2]) was 128 s⁻¹, the kcat/Km (purified protein [2]) was 1.96e+07 M⁻¹ s⁻¹ and the Km (purified protein [3]) was 121 ± 61 µM. It also gave a Vmax (purified protein [3]) of 0.98 µM/min, a kcat (purified protein [3]) of 545 s⁻¹ and a kcat/Km (purified protein [3]) of 4.5e+06 M⁻¹ s⁻¹. It also gave a Km (purified protein [4]) of 83 ± 42 µM, a Vmax (purified protein [4]) of 0.96 µM/min and a kcat (purified protein [4]) of 531 s⁻¹. The kcat/Km (purified protein [4]) was 6.4e+06 M⁻¹ s⁻¹, the Km (purified protein [5]) was 107 ± 57 µM and the Vmax (purified protein [5]) was 2.77 µM/min. For the same protein, the kcat (purified protein [5]) was 3080 s⁻¹, the kcat/Km (purified protein [5]) was 2.88e+07 M⁻¹ s⁻¹ and the Km (purified protein [6]) was 39 ± 14 µM. For the same protein, the Vmax (purified protein [6]) was 0.2 µM/min, the kcat (purified protein [6]) was 112 s⁻¹ and the kcat/Km (purified protein [6]) was 2.87e+06 M⁻¹ s⁻¹. The Km (purified protein [7]) was 46 ± 17 µM, the Vmax (purified protein [7]) was 2.35 µM/min and the kcat (purified protein [7]) was 2610 s⁻¹. For the same protein, the kcat/Km (purified protein [7]) was 5.71e+07 M⁻¹ s⁻¹.
